Where two headings read alike, the source gives them in different places.
T1: TolC trimer (E. coli, UniProt P02930 23-493)
T1 sequence (looked up): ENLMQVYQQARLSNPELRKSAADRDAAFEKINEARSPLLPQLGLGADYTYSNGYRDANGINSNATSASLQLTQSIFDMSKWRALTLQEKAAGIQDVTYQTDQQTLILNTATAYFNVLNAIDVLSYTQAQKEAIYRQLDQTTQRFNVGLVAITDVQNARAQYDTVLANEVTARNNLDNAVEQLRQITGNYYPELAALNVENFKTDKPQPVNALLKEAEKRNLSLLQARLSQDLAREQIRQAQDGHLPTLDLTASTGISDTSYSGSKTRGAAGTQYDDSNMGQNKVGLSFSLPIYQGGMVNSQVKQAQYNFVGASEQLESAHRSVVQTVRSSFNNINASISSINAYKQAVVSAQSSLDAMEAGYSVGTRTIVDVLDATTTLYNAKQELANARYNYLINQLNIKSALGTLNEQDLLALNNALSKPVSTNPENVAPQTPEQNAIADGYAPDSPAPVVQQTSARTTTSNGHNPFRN

B1: colicin E1 T-domain peptide T57–140 (domain or fragment)
chain: WSTAQLKKTQAEQAARAKAAAEAQAKAKANRDALTQRLKDIVNEALRHNASRTPSATELAHANNAAMQAEDERLRLAKAEEKAR
B2: 1–100 ^b: colicin E1 T-domain peptide, residues 1–100 (peptide)
chain: METAVAYYKDGVPYDDKGQVIITLLNGTPDGSGSGGGGGKGGSKSESSAAIHATAKWSTAQLKKTQAEQAARAKAAAEAQAKAKANRDALTQRLKDIVNE
B3: 81–141 ^c: colicin E1 T-domain peptide, residues 81–141 (peptide, UniProt P02978 81-141, looked up, fragment)
chain: AKAKANRDALTQRLKDIVNEALRHNASRTPSATELAHANNAAMQAEDERLRLAKAEEKARK
B4: 41–120 ^b: colicin E1 T-domain peptide, residues 41–120 (peptide, UniProt P02978 41-120, looked up, fragment)
chain: GGSKSESSAAIHATAKWSTAQLKKTQAEQAARAKAAAEAQAKAKANRDALTQRLKDIVNEALRHNASRTPSATELAHANN
B5: colicin E3 peptide T1–83: naturally disordered T1–83 peptide of colicin E3 used for zero helical content (peptide, UniProt P00646 1-83, looked up, fragment)
chain: MSGGDGRGHNTGAHSTSGNINGGPTGLGVGGGASDGSGWSSENNPWGGGSGSGIHWGGGSGHGNGGGNGNSGGGSGTGGNLSA
B6: colicin E1 T-domain peptide T57–190 (domain or fragment)
chain: WSTAQLKKTQAEQAARAKAAAEAQAKAKANRDALTQRLKDIVNEALRHNASRTPSATELAHANNAAMQAEDERLRLAKAEEKARKEAEAAEKAFQEAEQRRKEIEREKAETERQLKLAEAEEKRLAALSEEAKA
B7: colicin E1 T-domain peptide T57–120 (domain or fragment, UniProt P02978 57-120, looked up)
chain: WSTAQLKKTQAEQAARAKAAAEAQAKAKANRDALTQRLKDIVNEALRHNASRTPSATELAHANN
B8: 100–190 ^b: colicin E1 T-domain peptide, residues 100–190 (peptide, UniProt P02978 100-190, looked up, fragment)
chain: EALRHNASRTPSATELAHANNAAMQAEDERLRLAKAEEKARKEAEAAEKAFQEAEQRRKEIEREKAETERQLKLAEAEEKRLAALSEEAKA
B9: colicin E1 T-domain peptide T1–120 (domain or fragment, UniProt P02978 1-120, looked up)
chain: METAVAYYKDGVPYDDKGQVIITLLNGTPDGSGSGGGGGKGGSKSESSAAIHATAKWSTAQLKKTQAEQAARAKAAAEAQAKAKANRDALTQRLKDIVNEALRHNASRTPSATELAHANN
B10: 1–81 ^c: colicin E1 T-domain peptide, residues 1–81 (peptide, UniProt P02978 1-81, looked up, fragment)
chain: METAVAYYKDGVPYDDKGQVIITLLNGTPDGSGSGGGGGKGGSKSESSAAIHATAKWSTAQLKKTQAEQAARAKAAAEAQA
B11: colicin E1 T-domain peptide T1–140 (domain or fragment, UniProt P02978 1-140, looked up)
chain: METAVAYYKDGVPYDDKGQVIITLLNGTPDGSGSGGGGGKGGSKSESSAAIHATAKWSTAQLKKTQAEQAARAKAAAEAQAKAKANRDALTQRLKDIVNEALRHNASRTPSATELAHANNAAMQAEDERLRLAKAEEKAR
B12: 41–140 ^b: colicin E1 T-domain peptide, residues 41–140 (peptide, UniProt P02978 41-140, looked up, fragment)
chain: GGSKSESSAAIHATAKWSTAQLKKTQAEQAARAKAAAEAQAKAKANRDALTQRLKDIVNEALRHNASRTPSATELAHANNAAMQAEDERLRLAKAEEKAR

Legend:
[1] = Far-UV circular dichroism, helical content of T-domain peptides; type: physicochemical; conditions: for no. of residues, unordered: total number in peptide excluding tags minus residues in helices; for secondary structure, in words: far-UV CD, 50 mM sodium phosphate; for no. of residues, helix: from helical content by far-UV CD, DichroWeb, tags assumed unordered
[2] = Thermal melting followed by CD at 222 nm; type: physicochemical; conditions: CD 222 nm, 0.5 °C/min, 1 cm cuvette, pH 7.0
[3] = reference for disordered protein in CD222/CD208 plot; cited from earlier work
TolC = TolC (Escherichia coli, UniProt P02930); conditions: for occlusion of TolC channels (Figure 3 legend): 2 μg/mL both sides, 50 mV, 0.1 M KCl, 5 mM Tris-HCl pH 7.5
TolC trimer [4] = experiment: Co-elution of T-domain peptides with TolC on Superdex 200 size-exclusion column; type: binding, Escherichia coli; conditions: TolC:peptide 1:2, Superdex 200; peak shift and SDS–PAGE
TolC trimer [5] = target: T1, TolC trimer; experiment: occlusion of TolC ion channels in planar bilayer lipid membranes
TolC trimer [6] = target: T1, TolC trimer; experiment: SEC
TolC trimer [7] = target: T1, TolC trimer; experiment: precipitation upon mixing
TolC trimer [8] = target: T1, TolC trimer; experiment: SEC; remark: listed apart in the source

Molecule	no. of residues, unordered [1]	no. of residues, helix [1]	further results
141–190 ^c: colicin E1 T-domain peptide, residues 141–190 (KEAEAAEKAFQEAEQRRKEIEREKAETERQLKLAEAEEKRLAALSEEAKA)	5 residues		cooperativity of thermal melting [2]: not cooperative
81–140 ^b: colicin E1 T-domain peptide, residues 81–140 (AKAKANRDALTQRLKDIVNEALRHNASRTPSATELAHANNAAMQAEDERLRLAKAEEKAR; UniProt P02978 81-140, looked up, fragment)	25 residues		
1–40 ^c: colicin E1 T-domain peptide, residues 1–40 (METAVAYYKDGVPYDDKGQVIITLLNGTPDGSGSGGGGGK; UniProt P02978 1-40, looked up, fragment)	40 residues	0 residues	secondary structure, in words [1]: predominately disordered
α-synuclein			helical content [3]: 0%
139–190 ^b: colicin E1 T-domain peptide, residues 139–190 (ARKEAEAAEKAFQEAEQRRKEIEREKAETERQLKLAEAEEKRLAALSEEAKA; UniProt P02978 139-190, looked up, fragment)	7 residues		
100–140 ^b: colicin E1 T-domain peptide, residues 100–140 (EALRHNASRTPSATELAHANNAAMQAEDERLRLAKAEEKAR; UniProt P02978 100-140, looked up, fragment)	15 residues		occlusion of TolC channels (Figure 3 legend) (TolC): Occlusion of TolC channels; effect on transmembrane current through TolC channels (TolC; 2 μg/mL on both sides of BLM): significant and irreversible decrease in transmembrane current
B1	30 residues	54 ± 4 residues	co-elution / interaction with TolC, in words (TolC trimer [4]): severe protein precipitation; concentration at which TolC channels were efficiently occluded (TolC; I = 0.1 M, pH 7.5): ≥ 0.2 µM; concentration at which TolC channels were not occluded (TolC; I = 0.1 M, pH 7.5): 40 nM; Kd (TolC trimer [5]): ~100 nM
B2	~70 residues	30 ± 4 residues	increase in helical residues on lengthening the peptide ([1]; versus next shorter peptide (1–81, 1–100, 1–120, 1–140, 1–190 series)): 17 residues; occlusion of TolC channels (Figure 3 legend) (TolC): Lack of TolC occlusion; effect on transmembrane current through TolC channels (TolC; 10 μg/mL): did not decrease the transmembrane current
B3	44 residues		
B4	51 residues	29 ± 2 residues	
B5			helical content ([1]; reference for disordered protein in CD222/CD208 plot): 0%
B6			binding result (TolC trimer [6]): binds
B7	20 residues	44 ± 4 residues	co-elution / interaction with TolC, in words (TolC trimer [4]): severe protein precipitation; binding result (TolC trimer [7]): binds
B8	12 residues		cooperativity of thermal melting [2]: not cooperative
B9	74 residues	46 ± 12 residues	co-elution / interaction with TolC, in words (TolC trimer [4]): Co-elution was detected; binding result (TolC trimer [8]): binds
B10	~70 residues	13 ± 2 residues	secondary structure, in words [1]: low helical content; secondary structure, in words ([1]; listed as T1–81): predominately disordered
B11			binding result (TolC trimer [8]): binds
B12	35 residues	65 ± 5 residues	

Source: PMC5366289 (Biochemistry, 2016)
